Results as given in the supplement of paper PMC12042874.
± gives the uncertainty stated by the source.

Assay: amyloid nucleation score (Sup35N fusion, yeast selection) (log enrichment); library NNK3; higher = more nucleation; inactive = no reads after selection
How it was run: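 Nucleation score: DiMSum log enrichment of output over input reads, centred on the mode score of non-aggregating sequences. Only sequences with at least 100 input reads were kept. Reads came from Illumina sequencing of plasmid inserts before and after 7 days of growth at 30°C without adenine and uracil, in psi-negative yeast expressing Sup35N fused to peptides of 20 random codons after 24 hours of induction with 100 μM copper sulfate.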

Substance: GPPCDFCIRVSVCYTGSVNW
- amyloid nucleation score: 0.466 ± 0.39

Substance: GPWLLRASNAHTWTRYGLVK
- amyloid nucleation score: inactive

Substance: GPYNCFVH
- amyloid nucleation score: inactive

Substance: GQLYVMSRSDQARDSFELDA
- amyloid nucleation score: inactive

Substance: GQPGQ
- amyloid nucleation score: inactive

Substance: GQRNVVSYTSNMNVPLFSFG
- amyloid nucleation score: inactive

Substance: GRAHQFLISSFLSPGGPLMR
- amyloid nucleation score: inactive

Substance: GRIEKVVRNA
- amyloid nucleation score: inactive

Substance: GRIFRLPCYVRLVLVNCRYG
- amyloid nucleation score: inactive

Substance: GRNCFGGARTAVGIRNTSPL
- amyloid nucleation score: inactive

Substance: GRNYFENVWIHRLYSSCLVM
- amyloid nucleation score: 1.94 ± 0.068

Substance: GRSMLMLRTYNM
- amyloid nucleation score: -0.056 ± 0.78

Substance: GRVMVWIFIFMMGGMQANLS
- amyloid nucleation score: inactive

Substance: GRWFVCVQSAWCDCGGDVCV
- amyloid nucleation score: inactive

Substance: GRYAEETRYRVFLLIVMTRR
- amyloid nucleation score: inactive

Substance: GSAVVAAECIGKRC
- amyloid nucleation score: inactive

Substance: GSCRGVRWASRE
- amyloid nucleation score: inactive

Substance: GSDLSWGRYKNSRFSSSMSA
- amyloid nucleation score: inactive

Substance: GSFITSNA
- amyloid nucleation score: inactive

Substance: GSGEVWWVGCRTFFKTG
- amyloid nucleation score: inactive

Substance: GSGVNWFNIVVVS
- amyloid nucleation score: inactive

Substance: GSHVTKVLTFYSNVWVHFTG
- amyloid nucleation score: inactive

Substance: GSISMFNKG
- amyloid nucleation score: inactive

Substance: GSLGAMKNQTTASQGAEGAL
- amyloid nucleation score: inactive

Substance: GSLMTRRDLRKSPILIYRDG
- amyloid nucleation score: -0.819 ± 0.75

Substance: GSRCSASPKNSESGRGKYFG
- amyloid nucleation score: inactive

Substance: GSRGYGWFMKTFAYPRNCKN
- amyloid nucleation score: inactive

Substance: GSSRPVVSLTSDLRRCVGKD
- amyloid nucleation score: inactive

Substance: GSSVCAR
- amyloid nucleation score: inactive

Substance: GSTTCLYTSIPCCAGVLS
- amyloid nucleation score: 0.449 ± 0.21

Substance: GSVNLSVKSW
- amyloid nucleation score: inactive

Substance: GSVSPGNSILICFWFFWLLW
- amyloid nucleation score: inactive

Substance: GSWDVKLSF
- amyloid nucleation score: inactive

Substance: GSWSKNMILHTLDLDCVAIV
- amyloid nucleation score: inactive

Substance: GTDWLDMVILGEPFYMYLST
- amyloid nucleation score: inactive

Substance: GTGGSVRPHCEFSLRSSYMV
- amyloid nucleation score: inactive

Substance: GTGRSECNCMQGTHGLGICS
- amyloid nucleation score: -0.184 ± 1.5

Substance: GTIRVYIKTNDATVIGEHHA
- amyloid nucleation score: 1.21 ± 0.13

Substance: GTLCVGPLKASCETGKLKFF
- amyloid nucleation score: inactive

Substance: GTLTVYNRDFRDIGDFKIYA
- amyloid nucleation score: inactive

Substance: GTMSNYPNGFSMSSSYFSTY
- amyloid nucleation score: inactive

Substance: GTNDSDFESWNVFKCINCLA
- amyloid nucleation score: inactive

Substance: GTQRVAIEDSGVIR
- amyloid nucleation score: inactive

Substance: GTSICDVKFAPLYSE
- amyloid nucleation score: inactive

Substance: GTTLHYLSRREYGFTGRILF
- amyloid nucleation score: inactive

Substance: GTTYTAHYAWSTVGDIWSLH
- amyloid nucleation score: inactive

Substance: GTVGHYRLST
- amyloid nucleation score: inactive

Substance: GTYSTVKFCLCMWVILAPSS
- amyloid nucleation score: inactive

Substance: GVCASNQLALKCTYVPMSVR
- amyloid nucleation score: inactive

Substance: GVDDSLLKMRETCSRFGLTV
- amyloid nucleation score: inactive

Substance: GVGNPGWAVLM
- amyloid nucleation score: inactive

Substance: GVHVVYCVRFSEGIVYTSGF
- amyloid nucleation score: 0.906 ± 0.2

Substance: GVKYVDNIGLRGWFFCRHAV
- amyloid nucleation score: inactive

Substance: GVLLKVSR
- amyloid nucleation score: inactive

Substance: GVLLTYSCSRQLSPDFNCFC
- amyloid nucleation score: 1.62 ± 0.073

Substance: GVNIRCLRDDDSRLLKERSC
- amyloid nucleation score: inactive

Substance: GVPIWCEKYKLILQKNWLFK
- amyloid nucleation score: inactive

Substance: GVRLNVDRAVKVARELFH
- amyloid nucleation score: inactive

Substance: GVSEAMCVILFYFYWKWVFP
- amyloid nucleation score: inactive

Substance: GVVSMVYINKWTRFWVPRPS
- amyloid nucleation score: inactive

Substance: GVYHIQPCMRCRLHKGGSDS
- amyloid nucleation score: inactive

Substance: GVYPSGCYLNVRFWSLVHGA
- amyloid nucleation score: inactive

Substance: GWFSYSRMSNCSLNSTK
- amyloid nucleation score: inactive

Substance: GWNVWQGMNKNFGTYFSR
- amyloid nucleation score: inactive

Substance: GWSQYGACRVGVWGYRAPYN
- amyloid nucleation score: inactive

Substance: GWVYWVSMRVIPNRIVINDP
- amyloid nucleation score: inactive

Substance: GYDLFCGILMVDNSASIHTP
- amyloid nucleation score: 2.84 ± 0.063

Substance: GYFSLPIGGVVRTGVMLDE
- amyloid nucleation score: inactive

Substance: GYGCVTKV
- amyloid nucleation score: inactive

Substance: GYKFWCSVFLVWLILHVRQS
- amyloid nucleation score: inactive

Substance: GYMWGLEDNFALWTGRNNYV
- amyloid nucleation score: inactive

Substance: GYNVKGNP
- amyloid nucleation score: inactive

Substance: GYRYIVDLG
- amyloid nucleation score: inactive

Substance: GYRYTVHGIFEGVLWLTSAG
- amyloid nucleation score: inactive

Substance: GYSSTRNLAA
- amyloid nucleation score: inactive

Substance: HAFEYVFISVTYQFNVKVIV
- amyloid nucleation score: inactive

Substance: HAGNWPSGSGRMSATRRFGW
- amyloid nucleation score: inactive

Substance: HAGVHWFERGSFHWMLFINY
- amyloid nucleation score: inactive

Substance: HCCFVWERRNACGMVSSWMT
- amyloid nucleation score: inactive

Substance: HCFLRMWKLLRTYLQVVLET
- amyloid nucleation score: inactive

Substance: HCSQLFESTYKRMSHISRDL
- amyloid nucleation score: -0.56 ± 0.73

Substance: HCSWTSSAHEGPYAETGHWQ
- amyloid nucleation score: 0.557 ± 0.24

Substance: HCYWLVGSWRYFTALFEGGL
- amyloid nucleation score: inactive

Substance: HDIDGCIVRKSLYNGRGPLL
- amyloid nucleation score: inactive

Substance: HDMVREVDPILFMTLFRGGF
- amyloid nucleation score: -0.517 ± 1.2

Substance: HDYYLLLLTATL
- amyloid nucleation score: inactive

Substance: HECKYFGVCGRSQGNRSWVA
- amyloid nucleation score: inactive

Substance: HEIQGC
- amyloid nucleation score: inactive

Substance: HEVCS
- amyloid nucleation score: inactive

Substance: HEYSSKILMM
- amyloid nucleation score: inactive

Substance: HFHFLGCDSLGIVVGEWSDH
- amyloid nucleation score: 0.94 ± 0.18

Substance: HFLFVMSCPKWAVRFLAFVD
- amyloid nucleation score: inactive

Substance: HFLMFMRIIWVLRCPQVESP
- amyloid nucleation score: inactive

Substance: HFLRRTDFYTANWA
- amyloid nucleation score: inactive

Substance: HFRYY
- amyloid nucleation score: inactive

Substance: HFSLSG
- amyloid nucleation score: inactive

Substance: HGFEIDTRTDSRQAVNCMCC
- amyloid nucleation score: inactive

Substance: HGHDNVEDTCLRFSPAGLST
- amyloid nucleation score: inactive

Substance: HGIDKGLDVDETR
- amyloid nucleation score: inactive

Substance: HGIGFDDVASG
- amyloid nucleation score: -0.045 ± 0.88

Substance: HGLRALLRSLSLYLVLCFTV
- amyloid nucleation score: inactive

Substance: HGNRVFYFELHSYPVLDSAM
- amyloid nucleation score: 0.984 ± 0.17

Substance: HGSAWHSISEVVTIIRACGF
- amyloid nucleation score: inactive

Substance: HHIMIATLSG
- amyloid nucleation score: 0.711 ± 0.12

Substance: HHLNSYFRISFI
- amyloid nucleation score: inactive

Substance: HILVKITR
- amyloid nucleation score: 0.359 ± 0.71

Substance: HITGNGPHLRYCARQVLWSL
- amyloid nucleation score: inactive

Substance: HIYIVKSVCILCIWPCGLTE
- amyloid nucleation score: 2.86 ± 0.058

Substance: HKGALVWYFYCRANFADYLY
- amyloid nucleation score: inactive

Substance: HLLPLYTKSIVGYTTNAIPN
- amyloid nucleation score: inactive

Substance: HLRCFKMKFNSHFLVWGAGA
- amyloid nucleation score: inactive

Substance: HLRETCCRWDVLCVDSLLV
- amyloid nucleation score: inactive

Substance: HLRVMLLCFREYWDYAIMAL
- amyloid nucleation score: inactive

Substance: HLVYWVIHDLYMTI
- amyloid nucleation score: 0.303 ± 0.33

Substance: HMIGRCLVGIESYRW
- amyloid nucleation score: inactive

Substance: HMKPSMLYITVCRWFKFY
- amyloid nucleation score: inactive

Substance: HMLHVWYFLGRQYANTFCYM
- amyloid nucleation score: inactive

Substance: HMRIGNESWVIGCQ
- amyloid nucleation score: 0.132 ± 0.75

Substance: HMSQLTLYCCAKIRKVVPLL
- amyloid nucleation score: inactive

Substance: HNSCGGY
- amyloid nucleation score: inactive

Substance: HPCPK
- amyloid nucleation score: inactive

Substance: HPHTHVR
- amyloid nucleation score: inactive

Substance: HPSQIKKVAFHYVRICSKWL
- amyloid nucleation score: inactive

Substance: HPTFHSHDRGR
- amyloid nucleation score: inactive

Substance: HPVKLILILIWPAFERSRCG
- amyloid nucleation score: inactive

Substance: HPVYMVSTRWRRGGSDWV
- amyloid nucleation score: inactive

Substance: HQFFVVNSRDWLGHSSKFRF
- amyloid nucleation score: 0.814 ± 0.12

Substance: HQISVVCGTNMRNGCFRSLC
- amyloid nucleation score: inactive

Substance: HQNSCDMLFRLSSTYLWGRA
- amyloid nucleation score: inactive

Substance: HQSNFGDMSLVSNGSFRKAK
- amyloid nucleation score: inactive

Substance: HRFAGTKVALYGVKLGGARY
- amyloid nucleation score: inactive

Substance: HRGLWTKATSLYYPFEMWMV
- amyloid nucleation score: inactive

Substance: HRGYAAFFS
- amyloid nucleation score: inactive

Substance: HRLCSHYVFTGCPSNMRQCF
- amyloid nucleation score: 0.083 ± 0.28

Substance: HRPGFAGGHLWTVFKYVR
- amyloid nucleation score: inactive

Substance: HRSRISTWMWG
- amyloid nucleation score: inactive

Substance: HSATASFHAADWSLKFMDGP
- amyloid nucleation score: 0.326 ± 0.23

Substance: HSDVWSVRSGAYLLLYIQTM
- amyloid nucleation score: inactive

Substance: HSFIYVLDVLNVR
- amyloid nucleation score: inactive

Substance: HSFTAMLICSAYASAARYLR
- amyloid nucleation score: inactive

Substance: HSFVSWTRLT
- amyloid nucleation score: inactive

Substance: HSLLMCSMLLRFYVQYPICI
- amyloid nucleation score: inactive

Substance: HSLVVPIPSPILRVLKE
- amyloid nucleation score: inactive

Substance: HSMNHFIWLVFKMVSYVACV
- amyloid nucleation score: inactive

Substance: HSRRHCFLVSWE
- amyloid nucleation score: inactive

Substance: HSRYLMQLYVNSFSRFD
- amyloid nucleation score: 1.28 ± 0.12

Substance: HSVGWHFPLCFSTQMTLVRS
- amyloid nucleation score: inactive

Substance: HSVPLPMLYFHYNMILLMLL
- amyloid nucleation score: inactive

Substance: HSVWVYKHGLCDMWGGLTLI
- amyloid nucleation score: inactive

Substance: HTHVSTTTGIFSDRICEW
- amyloid nucleation score: inactive

Substance: HTMAHWITKEAAFLI
- amyloid nucleation score: inactive

Substance: HTWTWDIII
- amyloid nucleation score: 0.065 ± 0.23

Substance: HVFYPALI
- amyloid nucleation score: inactive

Substance: HVGLRAKLTFLDRVYLSILS
- amyloid nucleation score: inactive

Substance: HVPYIHRIFIWTYK
- amyloid nucleation score: inactive

Substance: HVQYLLHKFLTLVQMF
- amyloid nucleation score: inactive

Substance: HVRDTKRVSLKRSTYADRGG
- amyloid nucleation score: inactive
